Data set [1] deals with HeLa Kyoto. Kind of data set: melting temperature (median over replicates), in situ; higher = more thermally stable.
For data set [2], the system named is HeLa Kyoto. The data set is described as follows: thermal stability score vs G1/S (z-score of summed log2 fold changes over temperatures); higher = more thermally stable than in G1/S.
[3] abbreviates: cell cycle stage: early G1 (4.5 h after nocodazole release).
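Throughout, for melting temperature (median over replicates), in situ: HeLa Kyoto cells synchronized by double thymidine or nocodazole block, proteins quantified by TMT10plex mass spectrometry, three independent biological replicates.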
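Throughout, for thermal stability score vs G1/S (z-score of summed log2 fold changes over temperatures): synchronized HeLa Kyoto cells, proteins quantified by TMT10plex mass spectrometry, three biological replicates, mitosis taken 0.5 h after nocodazole release, G1/S directly after double thymidine block.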

In the case of “MEFDCEGLRRLLGKYKFRDLTVEELRNVNVFFPHFKYSMDTYVFKDSSQKDLLNFTGTIPVMYQGNTYNIPIRFWILDSHPFAPPICFLKPTANMGILVGKHVDAQGRIYLPYLQNWSHPKSVIVGLIKEMIAKFQEELPMYSLSSSDEARQVDLLAYIAKITEGVSDTNSKSWANHENKTVNKITVVGGGELGIACTLAISAKGIADRLVLLDLSEGTKGATMDLEIFNLPNVEISKDLSASAHSKVVIFTVNSLGSSQSYLDVVQSNVDMFRALVPALGHYSQHSVLLVASQPVEIMTYVTWKLSTFPANRVIGIGCNLDSQRLQYIITNVLKAQTSGKEVWVIGEQGEDKVLTWSGQEEVVSHTSQVQLSNRAMELLRVKGQRSWSVGLSVADMVDSIVNNKKKVHSVSALAKGYYDINSEVFLSLPCILGTNGVSEVIKTTLKEDTVTEKLQSSASSIHSLQQQLKL [UEVLD]”, the results for the melting temperature in the data set on HeLa Kyoto [1] (cell cycle stage: G1/S) and in the data set with HeLa Kyoto [1] (cell cycle stage: mitosis) were 49.9 °C and 50.1 °C, respectively. Also, the thermal stability score in the data set on HeLa Kyoto [2] (setting [3]) is -0.401; with HeLa Kyoto [2] (cell cycle stage: mitosis) it was 0.298.
For “MELWPCLAAALLLLLLLVQLSRAAEFYAKVALYCALCFTVSAVASLVCLLRHGGRTVENMSIIGWFVRSFKYFYGLRFEVRDPRRLQEARPCVIVSNHQSILDMMGLMEVLPERCVQIAKRELLFLGPVGLIMYLGGVFFINRQRSSTAMTVMADLGERMVRENLKVWIYPEGTRNDNGDLLPFKKGAFYLAVQAQVPIVPVVYSSFSSFYNTKKKFFTSGTVTVQVLEAIPTSGLTAADVPALVDTCHRAMRTTFLHISKTPQENGATAGSGVQPAQ [AGPAT2]”, the melting temperature in the data set with HeLa Kyoto [1] (cell cycle stage: mitosis) was found to be 52.2 °C. For the same sequence, the thermal stability score with HeLa Kyoto [2] (setting [3]) was -0.0581; in the data set with HeLa Kyoto [2] (cell cycle stage: mitosis) it was 0.548.
In the case of “MGLEAQRLPGAEEAPVRVALRVRPLLPKELLHGHQSCLQVEPGLGRVTLGRDRHFGFHVVLAEDAGQEAVYQACVQPLLEAFFEGFNATVFAYGQTGSGKTYTMGEASVASLLEDEQGIVPRAMAEAFKLIDENDLLDCLVHVSYLEVYKEEFRDLLEVGTASRDIQLREDERGNVVLCGVKEVDVEGLDEVLSLLEMGNAARHTGATHLNHLSSRSHTVFTVTLEQRGRAPSRLPRPAPGQLLVSKFHFVDLAGSERVLKTGSTGERLKESIQINSSLLALGNVISALGDPQRRGSHIPYRDSKITRILKDSLGGNAKTVMIACVSPSSSDFDETLNTLNYASRAQNIRNRATVNWRPEAERPPEETASGARGPPRHRSETRIIHRGRRAPGPATASAAAAMRLGAECARYRACTDAAYSLLRELQAEPGLPGAAARKVRDWLCAVEGERSALSSASGPDSGIESASVEDQAAQGAGGRKEDEGAQQLLTLQNQVARLEEENRDFLAALEDAMEQYKLQSDRLREQQEEMVELRLRLELVRPGWGGPRLLNGLPPGSFVPRPHTAPLGGAHAHVLGMVPPACLPGDEVGSEQRGEQVTNGREAGAELLTEVNRLGSGSSAASEEEEEEEEPPRRTLHLRRNRISNCSQRAGARPGSLPERKGPELCLEELDAAIPGSRAVGGSKARVQARQVPPATASEWRLAQAQQKIRELAINIRMKEELIGELVRTGKAAQALNRQHSQRIRELEQEAEQVRAELSEGQRQLRELEGKELQDAGERSRLQEFRRRVAAAQSQVQVLKEKKQATERLVSLSAQSEKRLQELERNVQLMRQQQGQLQRRLREETEQKRRLEAEMSKRQHRVKELELKHEQQQKILKIKTEEIAAFQRKRRSGSNGSVVSLEQQQKIEEQKKWLDQEMEKVLQQRRALEELGEELHKREAILAKKEALMQEKTGLESKRLRSSQALNEDIVRVSSRLEHLEKELSEKSGQLRQGSAQSQQQIRGEIDSLRQEKDSLLKQRLEIDGKLRQGSLLSPEEERTLFQLDEAIEALDAAIEYKNEAITCRQRVLRASASLLSQCEMNLMAKLSYLSSSETRALLCKYFDKVVTLREEQHQQQIAFSELEMQLEEQQRLVYWLEVALERQRLEMDRQLTLQQKEHEQNMQLLLQQSRDHLGEGLADSRRQYEARIQALEKELGRYMWINQELKQKLGGVNAVGHSRGGEKRSLCSEGRQAPGNEDELHLAPELLWLSPLTEGAPRTREETRDLVHAPLPLTWKRSSLCGEEQGSPEELRQREAAEPLVGRVLPVGEAGLPWNFGPLSKPRRELRRASPGMIDVRKNPL [KIF7]”, the melting temperature with HeLa Kyoto [1] (cell cycle stage: G1/S) is 52.4 °C; in the data set with HeLa Kyoto [1] (cell cycle stage: mitosis) it was 51.4 °C. Also, the thermal stability score was determined as 1.88 with HeLa Kyoto [2] (setting [3]) and 2.73 in the data set with HeLa Kyoto [2] (cell cycle stage: mitosis).
In the case of “MREIVHIQAGQCGNQIGAKFWEVISDEHGIDPSGNYVGDSDLQLERISVYYNEASSHKYVPRAILVDLEPGTMDSVRSGAFGHLFRPDNFIFGQSGAGNNWAKGHYTEGAELVDSVLDVVRKECENCDCLQGFQLTHSLGGGTGSGMGTLLISKVREEYPDRIMNTFSVVPSPKVSDTVVEPYNATLSIHQLVENTDETYCIDNEALYDICFRTLKLATPTYGDLNHLVSATMSGVTTSLRFPGQLNADLRKLAVNMVPFPRLHFFMPGFAPLTARGSQQYRALTVPELTQQMFDAKNMMAACDPRHGRYLTVATVFRGRMSMKEVDEQMLAIQSKNSSYFVEWIPNNVKVAVCDIPPRGLKMSSTFIGNSTAIQELFKRISEQFTAMFRRKAFLHWYTGEGMDEMEFTEAESNMNDLVSEYQQYQDATAEEEGEMYEDDEEESEAQGPK [TUBB3]”, the melting temperature in the data set with HeLa Kyoto [1] (cell cycle stage: G1/S) was 52.3 °C; with HeLa Kyoto [1] (cell cycle stage: mitosis), 54.3 °C. The values for the thermal stability score in the data set with HeLa Kyoto [2] (setting [3]) and with HeLa Kyoto [2] (cell cycle stage: mitosis) were -0.669 and 0.329, respectively.
In the case of “MREIVHIQAGQCGNQIGAKFWEVISDEHGIDPTGSYHGDSDLQLERINVYYNEAAGNKYVPRAILVDLEPGTMDSVRSGPFGQIFRPDNFVFGQSGAGNNWAKGHYTEGAELVDSVLDVVRKESESCDCLQGFQLTHSLGGGTGSGMGTLLISKIREEYPDRIMNTFSVMPSPKVSDTVVEPYNATLSVHQLVENTDETYSIDNEALYDICFRTLKLTTPTYGDLNHLVSATMSGVTTCLRFPGQLNADLRKLAVNMVPFPRLHFFMPGFAPLTSRGSQQYRALTVPELTQQMFDSKNMMAACDPRHGRYLTVAAIFRGRMSMKEVDEQMLNVQNKNSSYFVEWIPNNVKTAVCDIPPRGLKMSATFIGNSTAIQELFKRISEQFTAMFRRKAFLHWYTGEGMDEMEFTEAESNMNDLVSEYQQYQDATADEQGEFEEEEGEDEA [TUBB2A]”, the melting temperature turned out to be 56.7 °C in the data set with HeLa Kyoto [1] (cell cycle stage: G1/S) and 54.9 °C with HeLa Kyoto [1] (cell cycle stage: mitosis). The thermal stability score is -0.598 in the data set on HeLa Kyoto [2] (setting [3]) and -2.95 in the data set with HeLa Kyoto [2] (cell cycle stage: mitosis).
Regarding “MREYKLVVLGSGGVGKSALTVQFVQGIFVEKYDPTIEDSYRKQVEVDAQQCMLEILDTAGTEQFTAMRDLYMKNGQGFALVYSITAQSTFNDLQDLREQILRVKDTDDVPMILVGNKCDLEDERVVGKEQGQNLARQWNNCAFLESSAKSKINVNEIFYDLVRQINRKTPVPGKARKKSSCQLL [RAP1B]”, the melting temperature in the data set with HeLa Kyoto [1] (cell cycle stage: G1/S) and in the data set with HeLa Kyoto [1] (cell cycle stage: mitosis) was 58.5 °C throughout. In addition, the figures for the thermal stability score in the data set on HeLa Kyoto [2] (setting [3]) and in the data set with HeLa Kyoto [2] (cell cycle stage: mitosis) were -0.701 and -1.33, respectively.

Source of the values: the supplement of paper PMC5998384.
